Assay results published in PMC3796022 (Biochemistry, 2013).
Blank lines part the entries; values can stand above or below the binder they belong to.

T1: αA66-80 peptide (human)
T1 peptide: SDRDKFVIFLDVKHF

B1: recombinant human αB-crystallin (natural protein, UniProt P02511 1-175, looked up)
chain: MDIAIHHPWIRRPFFPFHSPSRLFDQFFGEHLLESDLFPTSTSLSPFYLRPPSFLRAPSWFDTGLSEMRLEKDRFSVNLDVKHFSPEELKVKVLGDVIEVHGKHEERQDEHGFISREFHRKYRIPADVDPLTITSSLSSDGVLTVNGPRKQVSGPERTIPITREEKPAVTAAPKK

How the values were obtained:
[1] = molecular target: T1, αA66-80 peptide; test: bis-ANS fluorescence
[2] = molecular target: B1; test: cross-linking
[3] = molecular target: the molecule itself; test: cross-linking

binding result [1]: binds
Binder: EEKPAVTAAPK [αB-crystallin C-terminal peptide 164–174]

binding result [2]: binds
Binder: SDRDKFVIFLDVKHFK (biotin on the added C-terminal lysine (SDRDKFVIFLDVKHFK-Biotin)) [C-terminal biotinylated αA66-80]

Binder: B1
binding result [3]: binds
